From patent US20050203022A1
Blank lines part the entries; values can stand above or below the substance they belong to.

Molecular target: TGFβ1 (UniProt P01137)
Experiment: cell-based or functional assay

Sequence of UniProt P01137 (P01137 279-390 limits assumed): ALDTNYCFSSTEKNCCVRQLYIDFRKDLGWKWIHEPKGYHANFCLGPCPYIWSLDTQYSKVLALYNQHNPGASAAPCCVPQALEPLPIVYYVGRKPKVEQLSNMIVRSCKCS

[3H] thymidine incorporation (CPM) of CCL64 mink lung cells with 0.1 ng/ml TGFβ1, control IgG at 0.02 µg/ml: 43000 CPM
[3H] thymidine incorporation (CPM) of CCL64 mink lung cells with 0.1 ng/ml TGFβ1, control IgG at 0.04 µg/ml: 54400 CPM
[3H] thymidine incorporation (CPM) of CCL64 mink lung cells with 0.1 ng/ml TGFβ1, control IgG at 0.08 µg/ml: 61900 CPM
[3H] thymidine incorporation (CPM) of CCL64 mink lung cells with 0.1 ng/ml TGFβ1, control IgG at 0.16 µg/ml: 52800 CPM
[3H] thymidine incorporation (CPM) of CCL64 mink lung cells with 0.1 ng/ml TGFβ1, control IgG at 0.31 µg/ml: 52400 CPM
[3H] thymidine incorporation (CPM) of CCL64 mink lung cells with 0.1 ng/ml TGFβ1, control IgG at 0.62 µg/ml: 56700 CPM
[3H] thymidine incorporation (CPM) of CCL64 mink lung cells with 0.1 ng/ml TGFβ1, control IgG at 1.25 µg/ml: 51400 CPM
[3H] thymidine incorporation (CPM) of CCL64 mink lung cells with 0.1 ng/ml TGFβ1, control IgG at 2.5 µg/ml: 54400 CPM
[3H] thymidine incorporation (CPM) of CCL64 mink lung cells with 0.1 ng/ml TGFβ1, control IgG at 5 µg/ml: 55100 CPM
[3H] thymidine incorporation (CPM) of CCL64 mink lung cells with 0.1 ng/ml TGFβ1, control IgG at 10 µg/ml: 53600 CPM
Substance: control IgG (antibody)

[3H] thymidine incorporation (CPM) of CCL64 mink lung cells with 0.1 ng/ml TGFβ1, TGFβRII:Fc at 0.02 µg/ml: 57700 CPM
[3H] thymidine incorporation (CPM) of CCL64 mink lung cells with 0.1 ng/ml TGFβ1, TGFβRII:Fc at 0.04 µg/ml: 49900 CPM
[3H] thymidine incorporation (CPM) of CCL64 mink lung cells with 0.1 ng/ml TGFβ1, TGFβRII:Fc at 0.08 µg/ml: 63800 CPM
[3H] thymidine incorporation (CPM) of CCL64 mink lung cells with 0.1 ng/ml TGFβ1, TGFβRII:Fc at 0.16 µg/ml: 75100 CPM
[3H] thymidine incorporation (CPM) of CCL64 mink lung cells with 0.1 ng/ml TGFβ1, TGFβRII:Fc at 0.31 µg/ml: 119000 CPM
[3H] thymidine incorporation (CPM) of CCL64 mink lung cells with 0.1 ng/ml TGFβ1, TGFβRII:Fc at 0.62 µg/ml: 150000 CPM
[3H] thymidine incorporation (CPM) of CCL64 mink lung cells with 0.1 ng/ml TGFβ1, TGFβRII:Fc at 1.25 µg/ml: 168000 CPM
[3H] thymidine incorporation (CPM) of CCL64 mink lung cells with 0.1 ng/ml TGFβ1, TGFβRII:Fc at 2.5 µg/ml: 179000 CPM
[3H] thymidine incorporation (CPM) of CCL64 mink lung cells with 0.1 ng/ml TGFβ1, TGFβRII:Fc at 5 µg/ml: 179000 CPM
[3H] thymidine incorporation (CPM) of CCL64 mink lung cells with 0.1 ng/ml TGFβ1, TGFβRII:Fc at 10 µg/ml: 182000 CPM
amount required to inhibit the anti-proliferative effect of 0.1 ng/ml TGFβ1 by 50%: 0.5 µg/mL
Substance: recombinant rabbit TGFβRII:Fc fusion protein
